Measurements as given in patent publication US20080274095A1, “Biocides” (priority 2004, published 2008).

Tests used:
[1] = Tobias et al. 1995; read-out: dissociation constant KD for LPS binding; cited from earlier work
[2] = tested on: Caco-2 Host Cells; assay: Host cell toxicity assay by LDH release; assay type: cell-based, human
Experimental: Host cell toxicity assay was performed by measuring the release of lactate dehydrogenase (LDH) in the medium using a CYTOTOX 96 Non-Radioactive Cytotoxicity Assay kit (Promega, Madison, Wis.). Toxicity was therefore classified as non toxic 0-5% LDH release and mild toxicity 5-10% LDH release (ref).

B1: LPS-binding protein (protein, UniProt P18428 26-481, looked up)
Lipopolysaccharide-binding …: ANPGLVARITDKGLQYAAQEGLLALQSELLRITLPDFTGDLRIPHVGRGRYEFHSLNIHSCELLHSALRPVPGQGLSLSISDSSIRVQGRWKVRKSFFKLQGSFDVSVKGISISVNLLLGSESSGRPTVTASSCSSDIADVEVDMSGDLGWLLNLFHNQIESKFQKVLESRICEMIQKSVSSDLQPYLQTLPVTTEIDSFADIDYSLVEAPRATAQMLEVMFKGEIFHRNHRSPVTLLAAVMSLPEEHNKMVYFAISDYVFNTASLVYHEEGYLNFSITDDMIPPDSNIRLTTKSFRPFVPRLARLYPNMNLELQGSVPSAPLLNFSPGNLSVDPYMEIDAFVLLPSSSKEPVFRLSVATNVSATLTFNTSKITGFLKPGKVKVELKESKVGLFNAELLEALLNYYILNTFYPKFNDKLAEGFPLPLLKRVQLYDLGLQIHKDFLFLGANVQYMRV
[1]
  Kd: 3.5 nM

B2: Lactoferrin (protein, UniProt P02788 20-710, looked up)
Lactotransferrin: GRRRSVQWCAVSQPEATKCFQWQRNMRKVRGPPVSCIKRDSPIQCIQAIAENRADAVTLDGGFIYEAGLAPYKLRPVAAEVYGTERQPRTHYYAVAVVKKGGSFQLNELQGLKSCHTGLRRTAGWNVPIGTLRPFLNWTGPPEPIEAAVARFFSASCVPGADKGQFPNLCRLCAGTGENKCAFSSQEPYFSYSGAFKCLRDGAGDVAFIRESTVFEDLSDEAERDEYELLCPDNTRKPVDKFKDCHLARVPSHAVVARSVNGKEDAIWNLLRQAQEKFGKDKSPKFQLFGSPSGQKDLLFKDSAIGFSRVPPRIDSGLYLGSGYFTAIQNLRKSEEEVAARRARVVWCAVGEQELRKCNQWSGLSEGSVTCSSASTTEDCIALVLKGEADAMSLDGGYVYTAGKCGLVPVLAENYKSQQSSDPDPNCVDRPVEGYLAVAVVRRSDTSLTWNSVKGKKSCHTAVDRTAGWNIPMGLLFNQTGSCKFDEYFSQSCAPGSDPRSNLCALCIGDEQGENKCVPNSNERYYGYTGAFRCLAENAGDVAFVKDVTVLQNTDGNNNEAWAKDLKLADFALLCLDGKRKPVTEARSCHLAMAPNHAVVSRMDKVERLKQVLLHQQAKFGRNGSDCPDKFCLFQSETKNLLFNDNTECLARLHGKTTYEKYLGPQYVAGITNLKKCSTSPLLEACEFLRK
notes: Sigma
[2]; 10 μg/ml
  % LDH release: 5.9 ± 1.2 %
[2]; 100 μg/ml
  % LDH release: 5.8 ± 3.1%
